# Assay results reported in patent US8541236B2, “Mutant apolipoprotein A-1 polypeptide with increased resistance to oxidation and reactive carbonyls” (University of Washington, priority 2006, dated 2013).
# “Also recorded” adds a separate entry of the source.
# Assays:
# ABCA1 [1] = target: T1, ABCA1 (Homo sapiens, UniProt O95477); parameters: expressed in transfected cells; host or cells: BHK (baby hamster kidney) cells; details: cited from earlier work
# [2] = tested on: Baby Hamster Kidney (BHK) cells transfected with a transfection vector alone (Mock); assay: 3H-cholesterol efflux from Mock-transfected BHK cells (ABCA1-independent, Example 11); assay type: cell-based; details: 20 μg/ml peptide, HOCl-treated (5 molar ratio HOCl to peptide), 4 hours
# Method: (§1) Baby Hamster Kidney (BHK) cells were transfected with a cDNA expressing ABCA1 (ABCA1) or with a transfection vector alone (Mock). The transfected cells were radiolabeled with ^3H-cholesterol, washed and then incubated for 4 hours with media containing 20 μg/ml untreated or HOCl-treated (5 molar ratio HOCl to peptide) peptide 2F (SEQ ID NO:9). At the end of the incubation, the amount of ^3H-cholesterol (efflux) released from the cells was measured and expressed as the percent total (media plus cells) ^3H-cholesterol.
# ABCA1 [3] = target: T1, ABCA1; assay: Radiolabeled cholesterol efflux assay from ABCA1-transfected BHK cells; assay type: cell-based; parameters: expressed in transfected cells; host or cells: BHK (baby hamster kidney) cells, mifepristone-inducible GeneSwitch system; details: for cholesterol efflux promoted: after oxidation by the MPO system
# Method: The effect of oxidant treatment of apoA-I on the ability of apoA-I to promote cholesterol efflux from cells via the ABCA1 pathway was measured as follows.
# A radiolabeled cholesterol efflux assay from ABCA1-transfected cells was carried out as described in Shao, et al., J. Biol. Chem. 280(7):5983-5993, 2005. Briefly described, baby hamster kidney (BHK) cells expressing mifepristone-inducible human ABCA1 were generated as described in Vaughan, A. M., et al., J. Lipid. Res. 44:1373-1380, 2003. Cellular cholesterol was labeled by adding 1 μCi/ml [^3H]cholesterol (Perkin Elmer Life Sciences) to the growth medium. Twenty-four hours later, strong expression of ABCA1 was induced by incubating the cells for 20 h with Dulbecco's modified Eagle's medium containing 1 mg/ml bovine serum albumin and 1 nM mifepristone. To measure cholesterol efflux, mock or ABCA1-transfected cells were incubated with Dulbecco's modified Eagle's medium/bovine serum albumin with or without apoA-I treated under the following conditions:
# (1) purified apoA-I was treated for 1 hour with increasing concentrations of HOCl, H2O2 with MPO plus NACl, ONOO, or H2O2 with MPO plus NO2;
# (2) purified apoA-I was treated for 24 hours with a molar ratio (mol:mol) of 0, 1:25, or 1:50 of acrolein; and
# (3) peptide 2F was treated for 1 hour with a 25 molar excess of HOCl.
# After 2 hour incubations with apoA-I, the medium and cells were assayed for [^3H]cholesterol as described in Vaughan, A. M., et al., J. Lipid. Res. 44:1373-1380, 2003. Cholesterol efflux mediated by apoA-I was calculated as the percentage of total [^3H]cholesterol (medium plus cells) released into the medium after subtracting the value obtained with Dulbecco's modified Eagle's medium/bovine serum albumin alone. Acrolein adducts of K226 were measured by MS.
# BHK cells transfected with a mifepristone-inducible GeneSwitch (Invitrogen) system containing a human ABCA1 cDNA were incubated with serum-free medium with or without 10 nM mifipristone for 24 h to generate cells expressing virtually no or high levels of ABCA1, respectively (see Vaughan, A. M., and J. F. Oram, J. Lipid Res. 44:1373-1380, 2003). To radiolabel cellular cholesterol, [^3H]cholesterol was added to the acetyl LDL medium for macrophages and the growth medium prior to ABCA1 induction for BHK cells. Efflux of [^3H]cholesterol was measured after a 2 h incubation in medium with or without apoA-I (Tang, C., et al., J. Biol. Chem. 279:7622-7628, 2004).
# ABCA1 [4] = target: T1, ABCA1; assay: 3H-cholesterol efflux from ABCA1-transfected BHK cells, 4 hour incubation with peptide (Example 11); assay type: cell-based; parameters: expressed in transfected cells; host or cells: BHK (baby hamster kidney) cells; details: 20 μg/ml peptide, HOCl-treated (5 molar ratio HOCl to peptide)
# Method: as §1
# [5] = ESI-MS analysis of chlorination after incubation with HOCl; assay type: physicochemical; details: incubated in the presence of HOCl
# [6] = Thioflavin T binding assay and electron microscopy for amyloid formation; assay type: physicochemical
# Method: A thioflavin T binding assay was used to investigate whether chlorination of apoA-I promotes amyloid formation. Thioflavin T is known to bind rapidly to amyloid fibrils and undergoes a dramatic increase in fluorescence at 485 nm upon excitation at 455 nm (see Naiki, H., et al., Anal. Biochem. 177:244-249, 1989). apoA-I was chlorinated by treatment with HOCl or the MPO system and a time course of thioflavin T binding to treated apoA-I was carried out over 60 minutes as shown in FIG. 6B.
# [7] = Far UV circular dichroism of HOCl-treated apoA-I; assay type: physicochemical; details: treated 1 hour with HOCl
# Method: Secondary structure of apoA-I was determined using far UV circular dichroism.
# [8] = target: T2, Lecithin Cholesterol Acyltransferase (LCAT) (Homo sapiens, UniProt P04180); assay: Activation of LCAT after oxidation with MPO; assay type: biochemical; details: apoA-I exposed to MPO
# T2 sequence (P04180 25-440): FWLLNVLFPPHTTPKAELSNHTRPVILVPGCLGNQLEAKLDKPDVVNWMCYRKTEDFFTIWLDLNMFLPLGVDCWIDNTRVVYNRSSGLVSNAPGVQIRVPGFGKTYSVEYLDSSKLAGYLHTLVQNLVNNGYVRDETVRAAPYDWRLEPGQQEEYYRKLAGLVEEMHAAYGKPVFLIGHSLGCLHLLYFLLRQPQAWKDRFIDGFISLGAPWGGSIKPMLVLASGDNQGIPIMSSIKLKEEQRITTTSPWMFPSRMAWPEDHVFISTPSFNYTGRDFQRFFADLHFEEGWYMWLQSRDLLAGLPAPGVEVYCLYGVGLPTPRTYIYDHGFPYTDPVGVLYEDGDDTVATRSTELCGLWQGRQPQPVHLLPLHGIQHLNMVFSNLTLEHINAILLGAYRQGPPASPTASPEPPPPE
# Method: Reactions with isolated HDL (1 mg protein/ml) were carried out at 37° C. for 1 h in 50 mM sodium phosphate buffer (pH 7.4) containing 100 uM DTPA and 100 nM MPO. Reactions were initiated by adding hydrogen peroxide and terminated by adding a 20-fold molar excess (relative to peroxide) of Met.
# ABCA1 [9] = target: T1, ABCA1; assay: Radiolabeled cholesterol efflux assay from ABCA1-transfected BHK cells; assay type: cell-based; parameters: expressed in transfected cells; host or cells: BHK (baby hamster kidney) cells, mifepristone-inducible GeneSwitch system; details: apoA-I treated with increasing concentrations of MDA
# [10] = Denaturing SDS-PAGE analysis of oxidant-treated apoA-I; assay type: physicochemical
# Method: In order to analyze the effects of HOCl and acrolein on apoA-I structure, purified apoA-I was treated with a molar ratio of HOCl at mol:mol concentrations of 0, 5, 10, or 25; or with a molar ratio of acrolein at mol:mol concentrations of 0, 1, 2, 5, 10, or 20.
# T1 sequence (O95477 whole entry): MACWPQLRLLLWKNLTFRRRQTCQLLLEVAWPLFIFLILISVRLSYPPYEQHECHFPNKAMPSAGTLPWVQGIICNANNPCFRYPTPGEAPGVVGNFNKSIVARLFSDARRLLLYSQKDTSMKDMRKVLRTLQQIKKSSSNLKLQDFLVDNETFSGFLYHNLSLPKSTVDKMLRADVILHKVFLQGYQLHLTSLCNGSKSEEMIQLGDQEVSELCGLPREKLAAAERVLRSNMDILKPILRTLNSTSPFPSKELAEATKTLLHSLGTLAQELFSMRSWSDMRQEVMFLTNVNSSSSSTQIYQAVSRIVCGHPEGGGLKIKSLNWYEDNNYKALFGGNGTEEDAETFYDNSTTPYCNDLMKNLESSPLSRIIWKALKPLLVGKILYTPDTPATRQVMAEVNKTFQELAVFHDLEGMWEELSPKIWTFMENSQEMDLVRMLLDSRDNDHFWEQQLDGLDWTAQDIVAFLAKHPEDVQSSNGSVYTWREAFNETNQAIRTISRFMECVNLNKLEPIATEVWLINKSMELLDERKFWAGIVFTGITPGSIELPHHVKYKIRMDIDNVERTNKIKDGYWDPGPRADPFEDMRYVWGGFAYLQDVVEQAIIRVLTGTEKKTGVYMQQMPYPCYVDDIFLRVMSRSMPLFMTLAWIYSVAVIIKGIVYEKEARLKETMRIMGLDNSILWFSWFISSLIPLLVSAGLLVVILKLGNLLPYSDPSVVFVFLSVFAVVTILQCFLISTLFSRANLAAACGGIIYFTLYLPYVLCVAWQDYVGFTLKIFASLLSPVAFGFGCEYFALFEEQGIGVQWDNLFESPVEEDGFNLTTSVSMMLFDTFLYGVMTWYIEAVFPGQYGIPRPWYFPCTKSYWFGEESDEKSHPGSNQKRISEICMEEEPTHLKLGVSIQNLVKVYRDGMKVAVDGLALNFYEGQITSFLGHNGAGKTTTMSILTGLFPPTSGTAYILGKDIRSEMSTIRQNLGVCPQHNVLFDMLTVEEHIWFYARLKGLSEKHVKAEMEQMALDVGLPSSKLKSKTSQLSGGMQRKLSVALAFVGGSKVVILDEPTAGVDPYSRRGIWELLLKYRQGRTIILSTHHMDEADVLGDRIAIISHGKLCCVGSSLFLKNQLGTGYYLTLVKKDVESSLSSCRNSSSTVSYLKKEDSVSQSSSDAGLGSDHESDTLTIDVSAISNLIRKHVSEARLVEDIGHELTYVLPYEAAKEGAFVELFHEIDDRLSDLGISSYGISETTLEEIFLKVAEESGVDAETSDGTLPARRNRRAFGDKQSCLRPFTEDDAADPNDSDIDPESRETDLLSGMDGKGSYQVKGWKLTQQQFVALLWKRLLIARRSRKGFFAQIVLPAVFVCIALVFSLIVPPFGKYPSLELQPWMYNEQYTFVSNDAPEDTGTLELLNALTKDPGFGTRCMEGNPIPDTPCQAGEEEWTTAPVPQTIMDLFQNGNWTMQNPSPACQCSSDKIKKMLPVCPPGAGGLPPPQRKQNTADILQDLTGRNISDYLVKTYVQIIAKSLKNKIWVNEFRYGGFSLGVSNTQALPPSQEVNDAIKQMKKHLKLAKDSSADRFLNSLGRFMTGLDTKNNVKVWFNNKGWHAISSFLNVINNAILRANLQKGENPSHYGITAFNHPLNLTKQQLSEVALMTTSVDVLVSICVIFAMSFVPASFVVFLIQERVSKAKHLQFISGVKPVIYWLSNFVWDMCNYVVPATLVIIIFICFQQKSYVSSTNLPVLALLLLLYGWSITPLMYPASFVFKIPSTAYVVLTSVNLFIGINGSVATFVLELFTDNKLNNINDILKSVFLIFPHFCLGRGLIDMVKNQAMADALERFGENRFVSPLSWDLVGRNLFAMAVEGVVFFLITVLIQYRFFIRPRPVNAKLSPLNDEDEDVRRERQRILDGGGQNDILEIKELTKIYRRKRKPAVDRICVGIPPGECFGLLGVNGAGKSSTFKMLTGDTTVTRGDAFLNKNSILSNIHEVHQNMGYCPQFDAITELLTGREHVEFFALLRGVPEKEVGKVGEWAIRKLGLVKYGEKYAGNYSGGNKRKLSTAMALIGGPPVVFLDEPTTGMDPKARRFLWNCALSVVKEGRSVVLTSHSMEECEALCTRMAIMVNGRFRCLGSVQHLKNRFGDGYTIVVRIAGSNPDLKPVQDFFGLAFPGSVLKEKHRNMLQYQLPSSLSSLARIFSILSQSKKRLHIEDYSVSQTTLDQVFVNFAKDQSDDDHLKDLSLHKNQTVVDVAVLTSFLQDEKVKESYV
substance,measurement,setting,value
"Ac-DWFKAFYDKVAEKFKEAF-NH2 [4F, 4F apoA-I mimetic peptide, unmodified original]",removing cell lipids by the ABCA1 pathway,ABCA1 [1],mimic apoA-I
"Ac-DWLKAFYDKVAEKLKEAF-NH2 [2F, 2F apoA-I mimetic peptide, unmodified]",ability to remove cholesterol by ABCA1-independent mechanism,[2],significantly reduced
same,removing cell lipids by the ABCA1 pathway,ABCA1 [1],mimic apoA-I
same,ABCA1 dependent cholesterol efflux activity,"ABCA1 [3]; peptide treated 1 hour with a 25 molar excess of HOCl, versus untreated peptide",significantly reduced
same,ability to remove cholesterol by ABCA1-dependent mechanism,ABCA1 [4],significantly reduced
"Tyr192Phe apoA-I: Tyr192Phe mutant of human apoA-I made by PCR mutagenesis, bacterially expressed",chlorination of residue 192 by HOCl,[5],fails to chlorinate
same,cholesterol efflux promoted,ABCA1 [3],significantly decreased
same,protective effect against apoA-I inactivation,ABCA1 [3]; by either HOCL or the MPO system,only a small protective effect
same,ability to promote cholesterol efflux,"ABCA1 [3]; increasing H2O2 in the complete MPO system, then incubated with PilB",nearly the same as that of native apoA-I
same,rates of cholesterol efflux compared with native apoA-I,"ABCA1 [3]; no oxidant, increasing protein concentrations",virtually identical
same,resistance to oxidative inactivation by MPO,ABCA1 [3]; when the concentration of H2O2 was high,somewhat resistant
"apoA-I: mature form of wild type human apoA-I, 243 amino acid polypeptide, purified from HDL",thioflavin T binding,"[6]; chlorination by HOCl or the complete MPO system, versus untreated apoA-I",markedly increased
same,amyloid-like structures,[6]; nitrated apoA-I,failed to reveal amyloid-like structures
same,amyloid-like structures,[6]; untreated apoA-I,no detectable amyloid-like structures
same,mean residue molar ellipticity at 222 nm,[7],concentration-dependent increase
same,ability to activate LCAT,[8],looses its ability to activate LCAT; also recorded: loss of its ability
same,cholesterol efflux activity,ABCA1 [9],progressively and extensively impaired
same,higher molecular weight species on SDS-PAGE,[10]; increasing concentrations of HOCl,generated higher molecular weight species that were resistant to SDS
same,higher molecular weight species on SDS-PAGE,[10]; increasing concentrations of acrolein,generated higher molecular weight species that were resistant to SDS
same,higher molecular weight species on SDS-PAGE,[10]; nitrated by reagent ONOO- or the complete MPO/H2O2/NO2 system,not observed
same,correlation (R) of impaired cholesterol removal with adduction of K226,ABCA1 [3]; acrolein-treated apoA-I,0.988
same,cholesterol efflux activity,ABCA1 [3]; after nitration of apoA-I (H2O2 with MPO plus NO2),fails to affect; also recorded: only a small inhibitory effect
same,cholesterol efflux promoted,ABCA1 [3],significantly decreased
same,cholesterol efflux activity,ABCA1 [3]; apoA-I treated 1 hour with increasing concentrations of HOCl or of H2O2 with the complete chlorinating MPO system,progressively and extensively impaired
same,ability to remove cellular cholesterol by the ABCA1 pathway,ABCA1 [3]; apoA-I treated 24 hours with increasing concentrations of acrolein,progressively impaired
same,cholesterol efflux activity,ABCA1 [3]; apoA-I treated with ONOO-,no effect
same,ability to promote cholesterol efflux,"ABCA1 [3]; complete MPO system with increasing H2O2 or increasing HOCl, then PilB to reduce Met(O) back to Met",partially restored
